B1: Afucosylated HLA-G02 (antibody, human IgG1, kappa)
heavy: not shown
light: AIVLTQSPSSLSASVGDRVTITCQASQSIYSYLSWYQQKPGKAPKLLIYKASTLASGVPSRFSGSGSGTDFTLTISSLQPEDFATYYCQNHWNVGGNGWPFGGGTKVEIKRTVAAPSVFIFPPSDEQLKSGTASVVCLLNNFYPREAKVQWKVDNALQSGNSQESVTEQDSKDSTYSLSSTLTLSKADYEKHKVYACEVTHQGLSSPVTKSFNRGEC
modifications: afucosylated IgG1 (produced in FUT8 knock-out CHO-SXE cells)
notes: also called aF HLA-G02; Afucosylated HLA-02
B2: HLA-G02 (humanised VR12389gL2gH16 IgG1, conventional i.e. fucosylated) (antibody)
heavy: not shown
light: B1 light
notes: also called conventional HLA-G02

Assays:
[1] = target: T1, HLA-G naturally expressed on human choriocarcinoma trophoblastic JEG3 cells (human, UniProt P17693 25-338; P61769 21-119); test: flow cytometry, blocking of ILT2rbFc binding to JEG3 cells
T1 construct: whole, on cells; also called JEG3 WT

[2] = target: T2, Human HLA-G ECD + B2m (soluble, AVItev10His tag) (human); test: SPR, 25 C, hIgG1 captured via anti-human Fc, HLA-G ECD+B2m titrated from 50 nM, another assay
T2 construct: also called soluble HLA-G

[3] = target: T1, HLA-G naturally expressed on human …; test: flow cytometry, blocking of ILT2rbFc binding to JEG3 cells, large volume
[4] = target: HLA-E consensus sequence, co-expressed with B2m on HEK293 cells (human, UniProt P13747 22-358; P61769 21-119); test: flow cytometry on HEK293 cells transfected with HLA-E consensus/B2m
[5] = target: HLA-C consensus sequence, co-expressed with B2m on HEK293 cells (human, UniProt P10321 25-366; P61769 21-119); test: flow cytometry on HEK293 cells transfected with HLA-C consensus/B2m
[6] = target: T1, HLA-G naturally expressed on human …; test: flow cytometry on JEG3 cells, 1.5 ml IgG solution, geometric mean of three independent assays; geometric mean of three independent assays
[7] = target: T3, HLA-G wild type, membrane-bound, co-expressed with B2m on transfected cells (HEK293 / HCT116) (human, UniProt P17693 25-338; P61769 21-119); test: flow cytometry on HEK293 cells transfected with HLA-G/B2m
T3 construct: Same construct transiently expressed on HEK293 (Expi293) or HCT116 cells; the cell line is named under assay; also called HLA-G WT; HEK-HLAG

[8] = target: HLA-B consensus sequence, co-expressed with B2m on HEK293 cells (human, UniProt P01889 25-362 at identity 0.96); P61769 21-119); test: flow cytometry on HEK293 cells transfected with HLA-B consensus/B2m
[9] = target: T3, HLA-G wild type, membrane-bound, …; test: flow cytometry, blocking of ILT4rbFc binding to HLA-G/B2m HCT116 cells
[10] = target: T3, HLA-G wild type, membrane-bound, …; test: flow cytometry, blocking of ILT2rbFc binding to HLA-G/B2m HEK293 cells
[11] = target: T1, HLA-G naturally expressed on human …; test: flow cytometry on JEG3 WT cells, IgG1 100-0.05 nM
[12] = target: HLA-A consensus sequence, co-expressed with B2m on HEK293 cells (human, UniProt P04439 25-365; P61769 21-119); test: flow cytometry on HEK293 cells transfected with HLA-A consensus/B2m
[13] = target: human HLA-G and β2 microglobulin stably expressed on the HLAG-β2m-Reh cell line (human, UniProt P17693 25-338; P61769 21-119); test: cell-based or functional assay
[14] = target: HLA-F consensus sequence, co-expressed with B2m on HEK293 cells (human, UniProt P30511 22-346; P61769 21-119); test: flow cytometry on HEK293 cells transfected with HLA-F consensus/B2m
[15] = target: T1, HLA-G naturally expressed on human …; test: flow cytometry on JEG3 cells, 1.5 ml IgG1 solution, 10-0.0005 nM
[16] = target: T2, Human HLA-G ECD + B2m (soluble, …); test: SPR, 25 C, hIgG1 captured via anti-human Fc, HLA-G ECD+B2m 50 nM as analyte, second experiment
[17] = target: T2, Human HLA-G ECD + B2m (soluble, …); test: SPR, 25 C, hIgG1 captured via anti-human Fc, HLA-G ECD+B2m titrated from 50 nM
[18] = target: T2, Human HLA-G ECD + B2m (soluble, …); test: SPR, 25 C, hIgG1 captured via anti-human Fc, HLA-G ECD+B2m 50 nM as analyte, first experiment

Binder	IC50 [1]	Kd [2]	IC50 [3]	binding result [4]	binding result [5]	EC50 [6]	EC50 [7]	binding result [8]	IC50 [9]	IC50 [10]	EC50 [11]	binding result [12]	EC50 (nM) of CDC, lot 1 [13]	EC50 (nM) of CDC, lot 2 [13]	EC50 (nM) of CDC, lot 3 [13]	binding result [14]	Kd [15]	Kd [16]	Kd [17]	Kd [18]
B1	0.51 nM	4.4 nM	0.021 nM	no binding (tested: IgG up to 100 nM)	no binding (tested: IgG up to 100 nM)	0.021 nM	0.92 nM	no binding (tested: IgG up to 100 nM)	1.38 nM	0.83 nM	0.2 nM	no binding (tested: IgG up to 100 nM)	2.51 nM	3.29 nM	3.7 nM	no binding (tested: IgG up to 100 nM)	–	–	–	–
B2	0.53 nM	4.3 nM	–	no binding (tested: IgG up to 100 nM)	no binding (tested: IgG up to 100 nM)	–	1.65 nM	no binding (tested: IgG up to 100 nM)	1.31 nM	1.37 nM	0.43 nM	no binding (tested: IgG up to 100 nM)	–	–	–	no binding (tested: IgG up to 100 nM)	0.02 nM	5.42 nM	5.09 nM	4.78 nM
